The record followed here is the supplement of paper PMC9112550, “Optimization of the antimicrobial peptide Bac7 by deep mutational scanning” (BMC Biology, 2022).

This data set has as its system Escherichia coli TOP10. In words: shrunken log2 fold change of peptide-encoding DNA abundance (4.5 h post-induction vs induction); higher = less antimicrobial activity (less host growth inhibition). To be noted: time post-induction: 4.5 h; library: site-saturation at positions 5, 18, 19, 20.
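Further: peptides expressed intracellularly from a pBAD plasmid library in pooled LB shake-flask culture, induced with 0.3% L-arabinose, DNA abundance read by NGS, three biological replicates, DESeq2 with apeglm shrinkage.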

As for RRIRERPPRLPRPRPRPFQQPRP, the “shrunken log2 fold change” value is -0.0184.
Regarding RRIRWRPPRLPRPRPRPSGAPRP, the “shrunken log2 fold change” value stood at 0.527.
The result for RRIRVRPPRLPRPRPRPQGCPRP reads -0.0651; that for RRIRLRPPRLPRPRPRPSQGPRP, 0.535.
Next, RRIRIRPPRLPRPRPRPGKWPRP: 0.0539; RRIRFRPPRLPRPRPRPCDMPRP: -0.00291; RRIRTRPPRLPRPRPRPQKAPRP: 0.00748.
For RRIRMRPPRLPRPRPRPTFSPRP, the “shrunken log2 fold change” value was 0.386.
Next, RRIRARPPRLPRPRPRPCDEPRP: 0.085; RRIRYRPPRLPRPRPRPSIAPRP: -0.216; RRIRRRPPRLPRPRPRPTCPPRP: 0.415.
The result for RRIRSRPPRLPRPRPRPSTHPRP reads -0.353; that for RRIRNRPPRLPRPRPRPRVEPRP, 0.345; that for RRIRYRPPRLPRPRPRPSINPRP, -0.39.
As for RRIRNRPPRLPRPRPRPVMPPRP, the “shrunken log2 fold change” value came to 0.267.
As to RRIRLRPPRLPRPRPRPKEQPRP, the “shrunken log2 fold change” value is 0.0445.
The result for RRIRMRPPRLPRPRPRPPYYPRP reads -0.243; that for RRIRFRPPRLPRPRPRPSNDPRP, -0.112; that for RRIRCRPPRLPRPRPRPEDDPRP, 0.159.
Next, RRIRWRPPRLPRPRPRPRKPPRP: 0.188; RRIRERPPRLPRPRPRPNHWPRP: -0.138; RRIRWRPPRLPRPRPRPTVYPRP: 0.116.
The result for RRIRWRPPRLPRPRPRPAISPRP reads -0.00844; that for RRIRNRPPRLPRPRPRPWEVPRP, 0.00408.
Turning to RRIRFRPPRLPRPRPRPWIVPRP, the “shrunken log2 fold change” value was -0.242.
For the sequence RRIRPRPPRLPRPRPRPLTVPRP, the “shrunken log2 fold change” value is -0.126.
Turning to RRIRSRPPRLPRPRPRPHKEPRP, the “shrunken log2 fold change” value is -0.00927.
Next, RRIRKRPPRLPRPRPRPDVGPRP: 0.0262; RRIRCRPPRLPRPRPRPEHCPRP: -0.0294.
RRIRLRPPRLPRPRPRPWKLPRP: the “shrunken log2 fold change” value was -0.00968.
Take RRIRKRPPRLPRPRPRPAEPPRP: the “shrunken log2 fold change” value came to 0.429.
Next, RRIRSRPPRLPRPRPRPYMMPRP: -0.36.
The result for RRIRKRPPRLPRPRPRPKFLPRP reads 0.119.
The result for RRIRMRPPRLPRPRPRPSENPRP reads -0.0243.
Consider RRIRRRPPRLPRPRPRPVLCPRP, for which the “shrunken log2 fold change” value turned out to be 0.569.
Take RRIRMRPPRLPRPRPRPTGLPRP: the “shrunken log2 fold change” value stood at 0.961.
As to RRIRVRPPRLPRPRPRPSVMPRP, the “shrunken log2 fold change” value is -0.15.
The result for RRIRTRPPRLPRPRPRPDRCPRP reads -0.0274; that for RRIRRRPPRLPRPRPRPTGRPRP, 0.489; that for RRIRERPPRLPRPRPRPYLSPRP, -0.515.
The result for RRIRNRPPRLPRPRPRPNFIPRP reads -0.105; that for RRIRGRPPRLPRPRPRPYLLPRP, -0.407.
Next, RRIRLRPPRLPRPRPRPEQDPRP: -0.125; RRIRVRPPRLPRPRPRPVAAPRP: 0.368; RRIRFRPPRLPRPRPRPKAAPRP: 0.264.
Regarding RRIRYRPPRLPRPRPRPGSVPRP, the “shrunken log2 fold change” value is -0.101.
Next, RRIRHRPPRLPRPRPRPGYEPRP: -0.454.
For RRIRRRPPRLPRPRPRPMQLPRP, the “shrunken log2 fold change” value amounted to 0.596.
Next, RRIRCRPPRLPRPRPRPMAQPRP: -0.0404; RRIRCRPPRLPRPRPRPDLSPRP: 0.0851; RRIRLRPPRLPRPRPRPYLWPRP: -0.0439.
Next, RRIRWRPPRLPRPRPRPKYGPRP: 0.085; RRIRCRPPRLPRPRPRPFWDPRP: 0.00555; RRIRKRPPRLPRPRPRPMFRPRP: 0.0113.
Next, RRIRSRPPRLPRPRPRPWDGPRP: -0.0512; RRIRNRPPRLPRPRPRPMYFPRP: -0.0737; RRIRSRPPRLPRPRPRPSTSPRP: -0.455.
As for RRIRFRPPRLPRPRPRPYQCPRP, the “shrunken log2 fold change” value is -0.0374.
In the case of RRIRHRPPRLPRPRPRPQRTPRP, the “shrunken log2 fold change” value was -0.145.
For the sequence RRIRNRPPRLPRPRPRPINEPRP, the “shrunken log2 fold change” value was -0.056.
Next, RRIRQRPPRLPRPRPRPTTVPRP: -0.114; RRIRYRPPRLPRPRPRPAMKPRP: -0.000923; RRIRHRPPRLPRPRPRPTIYPRP: -0.254.
RRIRQRPPRLPRPRPRPHFIPRP: the “shrunken log2 fold change” value is -0.328.
In the case of RRIRLRPPRLPRPRPRPTSMPRP, the “shrunken log2 fold change” value is -0.154.
Next, RRIRMRPPRLPRPRPRPGHVPRP: 0.329; RRIRLRPPRLPRPRPRPRNIPRP: -0.424; RRIRARPPRLPRPRPRPKLKPRP: 0.272.
Next, RRIRARPPRLPRPRPRPYASPRP: -0.245; RRIRLRPPRLPRPRPRPPQCPRP: -0.313.
The result for RRIRMRPPRLPRPRPRPYYYPRP reads -0.304.
RRIRMRPPRLPRPRPRPTIIPRP: the “shrunken log2 fold change” value is -0.374.
Next, RRIRLRPPRLPRPRPRPSLYPRP: -0.431; RRIRMRPPRLPRPRPRPRGEPRP: 0.0602; RRIRTRPPRLPRPRPRPFTSPRP: -0.0603.
Take RRIRPRPPRLPRPRPRPIKPPRP: the “shrunken log2 fold change” value was -0.0651.
Take RRIRWRPPRLPRPRPRPPLAPRP: the “shrunken log2 fold change” value was determined as 1.63.
With RRIRHRPPRLPRPRPRPADNPRP, the “shrunken log2 fold change” value is -0.306.
The result for RRIRSRPPRLPRPRPRPCQFPRP reads -0.0444; that for RRIRVRPPRLPRPRPRPQFQPRP, -0.0795; that for RRIRQRPPRLPRPRPRPCEEPRP, -0.0216.
The result for RRIRARPPRLPRPRPRPAHFPRP reads 0.25; that for RRIRCRPPRLPRPRPRPHVLPRP, -0.172.
Take RRIRFRPPRLPRPRPRPYYVPRP: the “shrunken log2 fold change” value is -0.14.
Next, RRIRRRPPRLPRPRPRPYEMPRP: -0.0957.
The result for RRIRERPPRLPRPRPRPSGWPRP reads -0.0693.
As to RRIRTRPPRLPRPRPRPQCTPRP, the “shrunken log2 fold change” value is -0.175.
As for RRIRTRPPRLPRPRPRPDTPPRP, the “shrunken log2 fold change” value is -0.193.
The result for RRIRCRPPRLPRPRPRPCPEPRP reads 1.16.
Next, RRIRPRPPRLPRPRPRPQDGPRP: 0.0623; RRIRFRPPRLPRPRPRPKLIPRP: -0.565; RRIRERPPRLPRPRPRPEQPPRP: -0.064.
On to RRIRYRPPRLPRPRPRPYCAPRP, for which the “shrunken log2 fold change” value was -0.899.
Next, RRIRPRPPRLPRPRPRPQRGPRP: 0.251; RRIRPRPPRLPRPRPRPGKDPRP: 0.0142; RRIRCRPPRLPRPRPRPAIFPRP: -0.273.
RRIRMRPPRLPRPRPRPLMCPRP: the “shrunken log2 fold change” value was -0.249.
Next, RRIRPRPPRLPRPRPRPTYWPRP: -0.00192; RRIRWRPPRLPRPRPRPRPEPRP: 0.502.
In the case of RRIRVRPPRLPRPRPRPKVLPRP, the “shrunken log2 fold change” value was -0.51.
As to RRIRKRPPRLPRPRPRPNTIPRP, the “shrunken log2 fold change” value turned out to be 0.0945.
RRIRWRPPRLPRPRPRPNLGPRP: the “shrunken log2 fold change” value stood at 0.0106.
As for RRIRWRPPRLPRPRPRPIIMPRP, the “shrunken log2 fold change” value was -0.241.
The result for RRIRDRPPRLPRPRPRPRTNPRP reads -0.179.
Turning to RRIRTRPPRLPRPRPRPASFPRP, the “shrunken log2 fold change” value stood at 0.133.
The result for RRIRYRPPRLPRPRPRPHYTPRP reads -0.936.
Next, RRIRMRPPRLPRPRPRPVDHPRP: -0.0711; RRIRTRPPRLPRPRPRPNPKPRP: 0.27; RRIRRRPPRLPRPRPRPLAIPRP: 0.0863.
The result for RRIRIRPPRLPRPRPRPIGCPRP reads -0.00783.
Take RRIRCRPPRLPRPRPRPCRMPRP: the “shrunken log2 fold change” value was -0.317.
The result for RRIRTRPPRLPRPRPRPFAQPRP reads -0.178; that for RRIRPRPPRLPRPRPRPMGVPRP, 0.0399.
The result for RRIRERPPRLPRPRPRPLCPPRP reads -0.393; that for RRIRCRPPRLPRPRPRPPNHPRP, -0.104.
Next, RRIRARPPRLPRPRPRPKFWPRP: 0.696; RRIRLRPPRLPRPRPRPIKHPRP: -0.821.
For RRIRIRPPRLPRPRPRPDPRPRP, the “shrunken log2 fold change” value came to 0.132.
The result for RRIRWRPPRLPRPRPRPNVHPRP reads 0.0272; that for RRIRHRPPRLPRPRPRPFNAPRP, -0.495.
Regarding RRIRPRPPRLPRPRPRPTFAPRP, the “shrunken log2 fold change” value stood at 0.409.
Take RRIRHRPPRLPRPRPRPPVSPRP: the “shrunken log2 fold change” value was -0.0862.
Next, RRIRMRPPRLPRPRPRPVSYPRP: -0.00671.
On to RRIRWRPPRLPRPRPRPQSDPRP, for which the “shrunken log2 fold change” value is -0.239.
Turning to RRIRDRPPRLPRPRPRPNKMPRP, the “shrunken log2 fold change” value is -0.195.
